The target in one assay is HLA-A*02:11. In words: IEDB peptide-MHC binding, purified MHC/competitive/fluorescence; filed as Kd, often an IC50 or EC50 that approximates it; ≥ and ≤ were set here for values at or beyond the usual limits of such assays.
Assay [1] concerns the target HLA-A*02:01. The description is as above.
The target in a further assay is HLA-A*02:02. Kind of assay: IEDB peptide-MHC binding, purified MHC/competitive/radioactivity; filed as Kd, often an IC50 or EC50 that approximates it; ≥ and ≤ were set here for values at or beyond the usual limits of such assays. Conditions: source organism: HIV-1 M:B_ARV2/SF2.
The target in the next assay is HLA-A*02:03. Described as above. As to conditions: source organism: HIV-1 M:B_ARV2/SF2.
In another assay the target is HLA-A*02:06. The description is as above. Conditions: source organism: HIV-1 M:B_ARV2/SF2.
The next assay addresses HLA-A*02:19. In words: IEDB peptide-MHC binding, purified MHC/competitive/fluorescence; filed as Kd, often an IC50 or EC50 that approximates it; ≥ and ≤ were set here for values at or beyond the usual limits of such assays. As to conditions: source organism: Human immunodeficiency virus type 1 (BH5 ISOLATE).
For assay [2], the target named is HLA-A*69:01. The assay is described as above. Conditions: source organism: Human immunodeficiency virus type 1 (BH5 ISOLATE).
The target in the next assay is HLA-C*15:02. Kind of assay: IEDB peptide-MHC binding, purified MHC/direct/fluorescence; filed as Kd, often an IC50 or EC50 that approximates it; ≥ and ≤ were set here for values at or beyond the usual limits of such assays. Conditions: source organism: Yellow fever virus.
Another assay has as its target HLA-B*46:01. Described as above. As to conditions: source organism: Yellow fever virus 17D.
The target in another assay is HLA-B*15:01. The description is as above.
The target in the next assay is HLA-C*14:02. Described as above. Conditions: source organism: Yellow fever virus.
The target of a further assay is HLA-B*51:01. The assay is described as above. As to conditions: source organism: Yellow fever virus 17D.
Another assay has as its target HLA-B*35:01. The assay is described as above.
For a further assay, the target named is HLA-B*44:02. The description is as above. Conditions: source organism: Giardia lamblia ATCC 50803.
A further assay deals with HLA-B*08:01. The assay is described as above. Conditions: source organism: Giardia lamblia ATCC 50803.
A further assay concerns the target HLA-B*58:01. The assay is described as above. As to conditions: source organism: Giardia lamblia ATCC 50803.
The target of another assay is HLA-A*24:03. The assay is described as above. Conditions: source organism: Giardia lamblia ATCC 50803.
Assay [3] concerns the target HLA-A*02:01. The description is as above. As to conditions: source organism: Giardia lamblia ATCC 50803.
In assay [4] the target is HLA-A*69:01. The assay is described as above. As to conditions: source organism: Giardia lamblia ATCC 50803.
For another assay, the target named is HLA-A*31:01. The description is as above. Conditions: source organism: Giardia lamblia ATCC 50803.
For another assay, the target named is HLA-A*26:01. The assay is described as above. As to conditions: source organism: Giardia lamblia ATCC 50803.
Another assay concerns the target HLA-B*40:01. The description is as above. Conditions: source organism: Giardia lamblia ATCC 50803.
A further assay addresses HLA-B*27:05. The assay is described as above. Conditions: source organism: Giardia lamblia ATCC 50803.
Another assay concerns the target HLA-B*07:02. The assay is described as above. As to conditions: source organism: Giardia lamblia ATCC 50803.
The next assay concerns the target HLA-A*01:01. The description is as above. As to conditions: source organism: Giardia lamblia ATCC 50803.
In a further assay the target is HLA-A*03:01. Described as above. As to conditions: source organism: Giardia lamblia ATCC 50803.
Another assay concerns the target HLA-A*11:01. Described as above. Conditions: source organism: Giardia lamblia ATCC 50803.
Setting [5] is: source organism: Giardia lamblia ATCC 50803.
[6] abbreviates: source organism: Human immunodeficiency virus type 1 (BH5 ISOLATE).

Bounds are passed on as bounds.

The Kd is a measure of binding affinity in units of concentration. As for SLQECVKMA, the figures for the Kd in the assay with HLA-A*02:11 (setting [5]) and in the assay with HLA-A*02:01 [1] (setting [5]) were 2.1 nM and 0.7 nM, respectively.

In the case of VLAEAMSQV, the Kd in the assay with HLA-A*02:02 is 2.43 nM; in the assay with HLA-A*02:03, 4.37 nM; with HLA-A*02:06, 13.1 nM; in the assay with HLA-A*02:11 (setting [6]), at most 0.1 nM; with HLA-A*02:19, 1.25 nM; in the assay with HLA-A*02:01 [1] (setting [6]) it was 27.5 nM. In addition, the Kd with HLA-A*69:01 [2] was 82.7 nM.

Consider RVLDCRTAF, for which the Kd with HLA-C*15:02 is at least 20000 nM; in the assay with HLA-B*46:01, at least 20000 nM; in the assay with HLA-B*15:01 (source organism: Yellow fever virus 17D), 108 nM; with HLA-C*14:02 it was 349 nM; with HLA-B*51:01 it was at least 20000 nM; with HLA-B*35:01 (source organism: Yellow fever virus), 324 nM.

For the sequence QTSTLYDFY, the Kd with HLA-B*44:02 was at least 20000 nM; with HLA-B*08:01, at least 20000 nM; with HLA-B*15:01 (setting [5]), 1710 nM; with HLA-B*58:01, 3790 nM; with HLA-A*24:03, at least 20000 nM; with HLA-A*02:01 [3], at least 20000 nM. Besides, the Kd in the assay with HLA-A*69:01 [4] is at least 20000 nM; in the assay with HLA-A*31:01, at least 20000 nM; with HLA-A*26:01 it was at least 20000 nM; with HLA-B*40:01, at least 20000 nM; with HLA-B*27:05 it was at least 20000 nM; with HLA-B*35:01 (setting [5]) it was 28.6 nM. Moreover, the Kd was at least 20000 nM with HLA-B*07:02, 39.7 nM in the assay with HLA-A*01:01, at least 20000 nM with HLA-A*03:01 and at least 20000 nM in the assay with HLA-A*11:01.

The values above are taken from the Immune Epitope Database (IEDB).
